Results from US20190142971A1, “FORMULATION AND DELIVERY OF MODIFIED NUCLEOSIDE, NUCLEOTIDE, AND NUCLEIC ACID COMPOSITIONS” (ModernaTX, Inc., priority 2013, published 2019).

Tests used:
Assay type in all cases: in vivo
mice [1] = assay: Example 65: G-CSF/EPO mRNA in saline in mice, serum protein at 13 hours (Table 97); conditions: EPO group; 100 ug, 100 μl/mouse, F. buffer, 13 hours after injection
Method: The mice were bled at 13 hours after the injection to determine the concentration of the human polypeptide in serum in pg/mL. (G-CSF groups measured human G-CSF in mouse serum and EPO groups measured human EPO in mouse serum).

rats = assay: Example 17: LNP IV, IM, SC in rats, serum EPO/G-CSF ELISA (Table 34); conditions: for EPO / G-CSF Serum Concentration: LNP 0.05 mg/kg
Method: (§1) Formulations, listed in Table 33, were characterized by particle size, zeta potential, and encapsulation.
LNP formulations, shown in Table 33 (above), were administered to rats (n=5) intravenously (IV), intramuscularly (IM) or subcutaneously (SC) at a single modified mRNA dose of 0.05 mg/kg. A control group of rats (n=4) was untreated. […] The rats administered EPO modified mRNA intravenously were also bled at 7 days.

mice [2] = assay: Example 42A: G-CSF/EPO mRNA in buffer IM in mice, serum protein at 13 hours (Table 67); conditions: EPO group: human EPO in mouse serum, IM 100 ug
Method: The mice were bled at 13 hours after the injection to determine the concentration of the human polypeptide in serum in pg/mL (G-CSF groups measured human G-CSF in mouse serum and EPO groups measured human EPO in mouse serum).

[3] = tested on: non-human primates (cynomolgus monkey); assay: Example 21: LNP IV in non-human primates, serum EPO/G-CSF ELISA (Table 37); conditions: for protein expression detectable out to: NHP IV
Method: as §1
LNP formulations, shown in Table 33 (above), were administered to non-human primates (NHP) (cynomolgus monkey) (n=2) as a bolus intravenous injection (IV) over approximately 30 seconds using a hypodermic needle, which may be attached to a syringe/abbocath or butterfly if needed. The NHP were administered a single modified mRNA IV dose of 0.05 mg/kg of EPO or G-CSF or 0.005 mg/kg of EPO in a dose volume of 0.5 mL/kg. The NHPs were bled 5-6 days before dosing with the modified mRNA LNP formulations to determine protein expression in the serum and a baseline complete blood count. After administration with the modified mRNA formulation the NHP were bled at 8, 24, 48 and 72 hours to determined protein expression. At 24 and 72 hours after administration the complete blood count of the NHP was also determined. Protein expression of G-CSF and EPO was determined by ELISA. Urine from the NHPs was collected over the course of the entire experiment and analyzed to evaluate clinical safety. Samples were collected from the NHPs after they were administered with G-CSF or EPO modified mRNA formulations to determine protein expression using ELISA. Clinical chemistry, hematology, urinalysis and cytokines of the non-human primates were also analyzed.

[4] = tested on: non-human primates (cynomolgus monkey); assay: Example 22: NHP serum chemistry ALT and AST (Tables 45, 46); conditions: 0.005 mg/kg

B1: EPO: modified mRNA encoding human erythropoietin, SEQ ID NO: 7, Cap1, fully modified with 5-methylcytosine and pseudouridine; LNP NPA-060-1 in Examples 17-22 (nucleic acid)
chain: GGGAAAUAAGAGAGAAAAGAAGAGUAAGAAGAAAUAUAAGAGCCACCAUGGGAGUGCACGAGUGUCCCGCGUGGUUGUGGUUGCUGCUGUCGCUCUUGAGCCUCCCACUGGGACUGCCUGUGCUGGGGGCACCACCCAGAUUGAUCUGCGACUCACGGGUACUUGAGAGGUACCUUCUUGAAGCCAAAGAAGCCGAAAACAUCACAACCGGAUGCGCCGAGCACUGCUCCCUCAAUGAGAACAUUACUGUACCGGAUACAAAGGUCAAUUUCUAUGCAUGGAAGAGAAUGGAAGUAGGACAGCAGGCCGUCGAAGUGUGGCAGGGGCUCGCGCUUUUGUCGGAGGCGGUGUUGCGGGGUCAGGCCCUCCUCGUCAACUCAUCACAGCCGUGGGAGCCCCUCCAACUUCAUGUCGAUAAAGCGGUGUCGGGGCUCCGCAGCUUGACGACGUUGCUUCGGGCUCUGGGCGCACAAAAGGAGGCUAUUUCGCCGCCUGACGCGGCCUCCGCGGCACCCCUCCGAACGAUCACCGCGGACACGUUUAGGAAGCUUUUUAGAGUGUACAGCAAUUUCCUCCGCGGAAAGCUGAAAUUGUAUACUGGUGAAGCGUGUAGGACAGGGGAUCGCUGAUAAGCUGCCUUCUGCGGGGCUUGCCUUCUGGCCAUGCCCUUCUUCUCUCCCUUGCACCUGUACCUCUUGGUCUUUGAAUAAAGCCUGAGUAGGAAG
modifications: Cap1, 5-methylcytosine, pseudouridine
Average Protein Product, serum (human EPO) (mice [1]): 72.03 pg/mL | protein expression detectable out to (rats; IV): 5 days | EPO / G-CSF Serum Concentration (rats; IM, 2 hours): 1395.4 pg/mL | EPO / G-CSF Serum Concentration (rats; IM, 8 hours): 8974.6 pg/mL | EPO / G-CSF Serum Concentration (rats; IM, 24 hours): 4678.3 pg/mL | EPO / G-CSF Serum Concentration (rats; IV, 2 hours): 36,981.0 pg/ml | EPO / G-CSF Serum Concentration (rats; IV, 8 hours): 62,053.3 pg/ml | EPO / G-CSF Serum Concentration (rats; IV, 24 hours): 42,077.0 pg/ml | EPO / G-CSF Serum Concentration (rats; IV, 48 hours): 5,561.5 pg/ml | EPO / G-CSF Serum Concentration (rats; IV, 5 days): 0.0 pg/mL | EPO / G-CSF Serum Concentration (rats; IV, 7 days): 0.0 pg/mL | EPO / G-CSF Serum Concentration (rats; SC, 2 hours): 386.2 pg/mL | EPO / G-CSF Serum Concentration (rats; SC, 8 hours): 985.6 pg/mL | EPO / G-CSF Serum Concentration (rats; SC, 24 hours): 544.2 pg/mL | protein expression detectable to (rats; subcutaneous and intramuscular): at least 24 hours | Average Protein Product, serum (mice [2]): 191.5 pg/mL | Average Serum Concentration ([3]; 0.005 mg/kg IV, 8 hours): 387 pg/mL | Female NHP Serum Concentration ([3]; 0.005 mg/kg IV, 8 hours): 523 pg/mL | Male NHP Serum Concentration ([3]; 0.005 mg/kg IV, 8 hours): 250 pg/mL | Average Serum Concentration ([3]; 0.005 mg/kg IV, 24 hours): 208 pg/mL | Female NHP Serum Concentration ([3]; 0.005 mg/kg IV, 24 hours): 302 pg/mL | Male NHP Serum Concentration ([3]; 0.005 mg/kg IV, 24 hours): 113 pg/mL | Average Serum Concentration ([3]; 0.005 mg/kg IV, 48 hours): <7.8 pg/mL | Female NHP Serum Concentration ([3]; 0.005 mg/kg IV, 48 hours): <7.8 pg/mL | Male NHP Serum Concentration ([3]; 0.005 mg/kg IV, 48 hours): <7.8 pg/mL | Average Serum Concentration ([3]; 0.005 mg/kg IV, 72 hours): 0 pg/mL | Female NHP Serum Concentration ([3]; 0.005 mg/kg IV, 72 hours): 0 pg/mL | Male NHP Serum Concentration ([3]; 0.005 mg/kg IV, 72 hours): 0 pg/mL | Average Serum Concentration ([3]; 0.005 mg/kg IV, Pre-bleed): 0 pg/mL | Female NHP Serum Concentration ([3]; 0.005 mg/kg IV, Pre-bleed): 0 pg/mL | Male NHP Serum Concentration ([3]; 0.005 mg/kg IV, Pre-bleed): 0 pg/mL | Average Serum Concentration ([3]; 0.05 mg/kg IV, 8 hours): 13,465 pg/ml | Female NHP Serum Concentration ([3]; 0.05 mg/kg IV, 8 hours): 19,858 pg/ml | Male NHP Serum Concentration ([3]; 0.05 mg/kg IV, 8 hours): 7,072 pg/ml | Average Serum Concentration ([3]; 0.05 mg/kg IV, 24 hours): 11,546 pg/ml | Female NHP Serum Concentration ([3]; 0.05 mg/kg IV, 24 hours): 18,178 pg/ml | Male NHP Serum Concentration ([3]; 0.05 mg/kg IV, 24 hours): 4,913 pg/ml | Average Serum Concentration ([3]; 0.05 mg/kg IV, 48 hours): 2,895 pg/ml | Female NHP Serum Concentration ([3]; 0.05 mg/kg IV, 48 hours): 5,291 pg/ml | Male NHP Serum Concentration ([3]; 0.05 mg/kg IV, 48 hours): 498 pg/mL | Average Serum Concentration ([3]; 0.05 mg/kg IV, 72 hours): 402 pg/mL | Female NHP Serum Concentration ([3]; 0.05 mg/kg IV, 72 hours): 744 pg/mL | Male NHP Serum Concentration ([3]; 0.05 mg/kg IV, 72 hours): 60 pg/mL | Average Serum Concentration ([3]; 0.05 mg/kg IV, Pre-bleed): 0 pg/mL | Female NHP Serum Concentration ([3]; 0.05 mg/kg IV, Pre-bleed): 0 pg/mL | Male NHP Serum Concentration ([3]; 0.05 mg/kg IV, Pre-bleed): 0 pg/mL | protein expression detectable out to ([3]; 0.005 mg/kg): 48 h | protein expression detectable out to ([3]; 0.05 mg/kg): 72 h | ALT ([4]; 2 days, Female NHP): 48 U/L | AST ([4]; 2 days, Female NHP): 25 U/L | ALT ([4]; 2 days, Male NHP): 62 U/L | AST ([4]; 2 days, Male NHP): 29 U/L | ALT ([4]; 4 days, Female NHP): 50 U/L | AST ([4]; 4 days, Female NHP): 55 U/L | ALT ([4]; 4 days, Male NHP): 48 U/L | AST ([4]; 4 days, Male NHP): 43 U/L | ALT ([4]; 7 days, Female NHP): 48 U/L | AST ([4]; 7 days, Female NHP): 31 U/L | ALT ([4]; 7 days, Male NHP): 21 U/L | AST ([4]; 7 days, Male NHP): 55 U/L
